Literature values in publication PMC12055905.

Target: SARS-CoV-2 spike RBD (SARS-CoV-2) (UniProt P0DTC2)

HBD-2 (from UniProt O15263)
Kd: 300 nM
